In US20260184775A1 (Chugai, published 2026):

Columns and labels:
[1] = target: T1, recombinant mouse latent TGF-beta 1 (Flag-tagged mouse latent TGF-beta 1) (mouse, UniProt P04202 34-390); assay: SPR, Biacore T200, 37 C, pH 7.4; antibody captured by anti-human Fc, latent TGF-beta 1 at 3.125 to 50 nM as analyte; 1:1 model
T1 construct: also called mouse recombinant latent TGF-beta 1
Procedure: (§1) The affinities of anti-latent TGF-beta 1 antibodies binding to human or mouse latent TGF-beta 1 at pH 7.4 were determined at 37 degrees C. using Biacore T200 instrument (GE Healthcare). Anti-human Fc (GE Healthcare) was immobilized onto all flow cells of a CM4 sensor chip using an amine coupling kit (GE Healthcare). All antibodies and analytes were prepared in ACES pH 7.4 containing 20 mM ACES, 150 mM NaCl, 1.2 mM CaCl₂), 0.05% Tween 20, 0.005% NaN3. Each antibody was captured onto the sensor surface by anti-human Fc. Antibody capture levels were aimed at 300 resonance unit (RU). For TBA865 and TBA873, recombinant human or mouse latent TGF-beta 1 was injected at 12.5 to 200 nM prepared by two-fold serial dilution, followed by dissociation. For TBS139 and TBS182, recombinant human or mouse latent TGF-beta 1 was injected at 3.125 to 50 nM prepared by two-fold serial dilution, followed by dissociation. The sensor surface was regenerated each cycle with 3M MgCl2.

[2] = target: T2, recombinant human latent TGF-beta 1 (Flag-tagged human latent TGF-beta 1) (human, UniProt P01137 34-390); assay: SPR, Biacore T200, 37 C, pH 7.4; antibody captured by anti-human Fc, latent TGF-beta 1 injected at 3.125 to 50 nM
T2 construct: Latent form: LAP plus mature TGF-beta 1; also called human recombinant latent TGF-beta 1; SLC
Procedure: as §1

T1 sequence (P04202 other isoform, or with tags, fused parts or gaps limits assumed): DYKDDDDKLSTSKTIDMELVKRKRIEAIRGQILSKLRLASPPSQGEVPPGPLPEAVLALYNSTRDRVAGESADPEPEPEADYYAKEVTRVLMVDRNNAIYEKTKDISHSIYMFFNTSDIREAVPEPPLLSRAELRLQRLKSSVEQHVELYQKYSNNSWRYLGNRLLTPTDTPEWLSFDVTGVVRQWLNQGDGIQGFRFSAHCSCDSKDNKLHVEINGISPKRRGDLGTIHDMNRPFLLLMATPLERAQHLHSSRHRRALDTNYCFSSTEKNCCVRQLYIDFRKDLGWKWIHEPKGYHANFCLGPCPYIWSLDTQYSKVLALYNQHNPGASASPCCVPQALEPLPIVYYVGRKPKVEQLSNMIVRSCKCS
T2 sequence (P01137 other isoform, or with tags, fused parts or gaps limits assumed): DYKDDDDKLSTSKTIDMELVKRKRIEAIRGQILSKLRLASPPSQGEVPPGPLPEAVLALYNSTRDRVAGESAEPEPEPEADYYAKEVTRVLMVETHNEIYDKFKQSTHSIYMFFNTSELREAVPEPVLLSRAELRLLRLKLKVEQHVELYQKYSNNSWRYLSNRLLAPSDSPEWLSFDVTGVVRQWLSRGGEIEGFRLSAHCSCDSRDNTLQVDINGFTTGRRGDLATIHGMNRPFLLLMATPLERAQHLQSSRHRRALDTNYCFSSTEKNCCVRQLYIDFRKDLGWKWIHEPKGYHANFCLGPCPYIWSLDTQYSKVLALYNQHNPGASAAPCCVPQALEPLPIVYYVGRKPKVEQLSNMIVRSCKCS

B1: TBS182 (antibody, V domains shown)
VH: QSLEESGGDLVKPGASLTLTCTASGFSFSRSYYMCWVRQAPGKGLEWIACIYGGSSGSTWYASWAKGRFTISKTSSTTVTLQMTSLTAADTATYFCARDIGNYYRWWGPGTLVTVSS
VL: AVVLTQTTSPVSAPVGGTVTIKCQASKNIYSLLAWYQQKPGQPPKLLIYDASTLASGVPSRFKGSGSGTQFTLTISDLECADAATYYCQSYYDSSSSADLSTFGGGTEVVVKR
Kd [1]: 0.0482 nM
koff [1]: 5.32e-05 s⁻¹
kon [1]: 1.1e+06 M⁻¹ s⁻¹
binding result [2]: no binding (tested: 50 nM)
